Measurements taken from paper PMC3674922, “Single-molecule photobleaching reveals increased MET receptor dimerization upon ligand binding in intact cells” (BMC Biophysics, 2013).

Target: T1, soluble MET ectodomain (MET928) (human, UniProt P08581 25-932)
T1 construct: MET receptor tyrosine kinase, human, soluble complete ectodomain (MET928)
Experiment: fluorescence correlation spectroscopy (FCS); in solution; 1 nM InlB-ATTO647N, MET928 titrated from 0.01 nM to 1-2 uM; PBS with 0.05% Tween-20; at least 3 h at room temperature; objective at 20°C; diffusion time fitted to a 1:1 binding model
Details: both partners purified

T1 sequence (P08581 25-932): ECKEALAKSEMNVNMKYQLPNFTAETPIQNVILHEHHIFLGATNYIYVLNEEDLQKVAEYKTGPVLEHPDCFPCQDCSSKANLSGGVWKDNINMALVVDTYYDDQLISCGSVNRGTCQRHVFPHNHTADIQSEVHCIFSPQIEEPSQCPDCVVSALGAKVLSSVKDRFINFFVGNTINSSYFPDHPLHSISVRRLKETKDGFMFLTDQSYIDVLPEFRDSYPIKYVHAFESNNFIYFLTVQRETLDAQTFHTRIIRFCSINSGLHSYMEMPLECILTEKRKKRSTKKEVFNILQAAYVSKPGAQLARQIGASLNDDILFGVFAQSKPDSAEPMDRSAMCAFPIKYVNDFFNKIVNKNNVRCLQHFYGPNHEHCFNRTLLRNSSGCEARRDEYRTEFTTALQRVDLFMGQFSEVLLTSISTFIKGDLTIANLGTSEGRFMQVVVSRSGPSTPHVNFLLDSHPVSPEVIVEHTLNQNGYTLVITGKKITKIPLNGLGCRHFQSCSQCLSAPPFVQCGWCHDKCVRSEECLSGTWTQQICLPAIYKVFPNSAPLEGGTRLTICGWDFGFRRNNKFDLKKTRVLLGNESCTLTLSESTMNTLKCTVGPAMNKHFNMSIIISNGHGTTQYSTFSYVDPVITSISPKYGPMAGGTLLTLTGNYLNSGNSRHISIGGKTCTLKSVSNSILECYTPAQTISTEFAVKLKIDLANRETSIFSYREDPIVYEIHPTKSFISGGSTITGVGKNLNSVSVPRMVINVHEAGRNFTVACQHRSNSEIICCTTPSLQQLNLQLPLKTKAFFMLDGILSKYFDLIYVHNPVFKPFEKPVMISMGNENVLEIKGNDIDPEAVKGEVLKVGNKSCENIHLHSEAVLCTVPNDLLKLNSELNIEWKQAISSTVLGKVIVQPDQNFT

B1: InlB-ATTO647N (InlB321 with C242A and K280C, labelled with ATTO647N at C280) (domain or fragment)
chain: ETITVPTPIKQIFSDDAFAETIKDNLKKKSVTDAVTQNELNSIDQIIANNSDIKSVQGIQYLPNVTKLFLNGNKLTDIKPLANLKNLGWLFLDENKVKDLSSLKDLKKLKSLSLEHNGISDINGLVHLPQLESLYLGNNKITDITVLSRLTKLDTLSLEDNQISDIVPLAGLTKLQNLYLSKNHISDLRALAGLKNLDVLELFSQEALNKPINHQSNLVVPNTVKNTDGSLVTPEIISDDGDYECPNVKWHLPEFTNEVSFIFYQPVTIGKAKARFHGRVTQPLKE
modifications: ATTO647N attached to C280 by maleimide coupling (degree of labeling 0.5)
notes: internalin B (InlB) of Listeria monocytogenes, N-terminal internalin domain, amino acids 36-321 (InlB321); either way residue 280 is cysteine; also called dye-labeled InlB321; internalin domain of InlB
  Kd: 5 ± 0.8 nM
